# US10183062B2, “Treatment for cancer” (The University of Nottingham, priority 2013, dated 2019)
# “Also recorded” adds a separate entry of the source.
# Assays:
# [1] = test system: E. coli NfnB variant N71S/F124K; settings: Searle et al., 2004 and Race et al., 2007; read-out: Km^NADH; cited from earlier work
# [2] = test system: BliNTR, NTR from Bacillus licheniformis; settings: Emptage et al., 2009; read-out: Km^NADH; cited from earlier work
# [3] = test system: E. coli NfnB nitroreductase, wild type; settings: Knox et al., 1992; read-out: Km^NADH; cited from earlier work
# [4] = test system: NC(=O)c1cc(N2CC2)c([N+](=O)[O-])cc1[N+](=O)[O-]; test: CB1954 nitroreductase activity, HPLC, purified His-tagged HsoNTR; assay type: biochemical, Haemophilus somnus 129PT; settings: pH 7.0; for kcat: 37° C.
# Source text: (§1) Genes encoding homologs of E. coli NfnB and Bacillus amyloliquefaciens YwrO from several bacteria were cloned into an E. coli expression vector for screening (see Methods below). These were the NfnB homolog from Neisseria meningitidis MC58 (‘NmeNTR’, accession number Q9K022), the NfnB homolog from Haemophilus somnus 129PT (‘HsoNTR’, accession number ZP_00122352.1), the NfnB homolog from Burkholderia fungorum LB400 (‘BfuNTR’, accession number ZP_00029570.1), the YwrO homolog from Vibrio cholerae (‘VchYwrO’, accession number Q9KNX3), the YwrO homolog from Rhodobacter sphaeroides (‘RspYwrO’, accession number ZP_00007082.1), and two YwrO homologs from Pseudomonas aeruginosa (‘PaeYwrO1’, accession number Q9HUJ0; and ‘PaeYwrO2’, accession number Q9I4B3).
# (§2) For determination of CB1954 nitroreductase kinetic parameters, six-histidine affinity-tagged enzymes were purified from cell lysates purified using a Novagen His-Bind kit in accordance with the manufacturer's instructions.
# (§3) CB1954 nitroreductase activity was determined essentially as described by Anlezark (6). Reaction mixtures containing 500 μM NADH or NADPH and a small quantity of enzyme (either crude lysate or purified enzyme) were assembled in pre-warmed (to 37° C.) 100 mM sodium phosphate buffer (pH 7.0), and started with the addition of 100 μM CB1954 and prompt mixing.
# (§4) To determine initial reaction rates during preliminary screening of CB1954 nitroreductase candidates, aliquots of the reaction mixtures taken at various times were injected into a Partisphere SCX (100×4.7 mm) HPLC column and eluted isocratically at 2 ml/min with 130 mM NaH2PO4 (pH 5.0). Eluates were continuously monitored at 260 nm and 325 nm, and the absorbance spectra of eluting components recorded using a photodiode array detector. Peaks were identified with reference to standards and/or by their known absorbance spectra (7) and anticipated column retention times as appropriate. Rates were determined based on the decrease in the area under the CB1954 peak over time, normalised to the known starting concentration of 100 μM using the peak from the zero timepoint sample.
# (§5) To determine initial reaction rates and CB1954 nitroreduction products in later experiments with purified proteins, peaks were identified as before, and rates were determined based on the increase in the area under the 4-hydroxylamine derivative peak over time, normalised using enzymatically-synthesised 4-hydroxylamine standards.
# (§6) NmeNTR and HsoNTR were each affinity-tagged, over-expressed, purified, and the CB1954 nitroreductase activities of the purified proteins characterized using the HPLC assay. The reaction products and kinetic parameters of these enzymes with respect to CB1954 and NADH were determined (Table 1). […]
# [5] = test system: NC(=O)C1=CN([C@@H]2O[C@H](COP(=O)(O)OP(=O)(O)OC[C@H]3O[C@@H](n4cnc5c(N)ncnc54)[C@H](O)[C@@H]3O)[C@@H](O)[C@H]2O)C=CC1; test: as above; assay type: biochemical, Haemophilus somnus 129PT; settings: other: 37° C., pH 7.0
# Source text: as §1, §2, §3, §4, §5, §6
# [6] = test system: NC(=O)c1cc(N2CC2)c([N+](=O)[O-])cc1[N+](=O)[O-]; test: CB1954 nitroreductase activity, HPLC, purified His-tagged NmeNTR; assay type: biochemical, Neisseria meningitidis MC58; settings: pH 7.0
# Source text: as §1, §2, §3, §4, §5
# (§7) NmeNTR and HsoNTR were each affinity-tagged, over-expressed, purified, and the CB1954 nitroreductase activities of the purified proteins characterized using the HPLC assay. The reaction products and kinetic parameters of these enzymes with respect to CB1954 and NADH were determined (Table 1). […] Moreover, the kinetic parameters of HsoNTR and NmeNTR differ dramatically from those of E. coli NfnB and other published enzymes (Table 1). […] NmeNTR would therefore approach saturation with CB1954 in a therapeutic regime using the maximum clinically-recommended dose, so the prodrug would be efficiently activated and high levels of tumour-specific cytotoxicity achieved.
# [7] = test system: NC(=O)C1=CN([C@@H]2O[C@H](COP(=O)(O)OP(=O)(O)OC[C@H]3O[C@@H](n4cnc5c(N)ncnc54)[C@H](O)[C@@H]3O)[C@@H](O)[C@H]2O)C=CC1; test: as above; assay type: biochemical, Neisseria meningitidis MC58; settings: other: 37° C., pH 7.0
# Source text: as §1, §2, §3, §4, §5, §7
# [8] = Screen for CB1954 nitroreductase activity in E. coli lysates (HPLC); assay type: biochemical; settings: 100 μM CB1954
# Procedure: To screen for CB1954 nitroreductase activity of each of the functionally expressed genes, lysates of E. coli cells containing the NfnB or YwrO homolog expression plasmid were added to reaction mixtures containing CB1954 and the concentration of CB1954 was monitored by HPLC (see Methods below). […] Such activity was not observed in the lysates containing VchYwrO, PaeYwrO1 or PaeYwrO2.
# (§8) Lysates of E. coli clones containing pMTL1015-based enzyme expression plasmids were prepared for preliminary characterisation of enzyme activities. […]
# as §3
# To determine initial reaction rates during preliminary screening of CB1954 nitroreductase candidates, aliquots of the reaction mixtures taken at various times were injected into a Partisphere SCX (100×4.7 mm) HPLC column and eluted isocratically at 2 ml/min with 130 mM NaH2PO4 (pH 5.0). Eluates were continuously monitored at 260 nm and 325 nm, and the absorbance spectra of eluting components recorded using a photodiode array detector. […]
# [9] = CB1954 nitroreductase activity of purified His-tagged proteins (HPLC assay); assay type: biochemical
# Procedure: as §2, §3, §5, §7
# [10] = Specific menadione reductase activity in lysates of E. coli cells (screen for functional expression); assay type: biochemical; settings: E. coli lysates containing expression plasmid
# Procedure: In an initial screen for functional expression of each of the cloned genes, specific menadione reductase activity was determined in lysates of E. coli cells containing the NfnB or YwrO homolog expression plasmid. Enzymes from these families are expected to be NAD(P)H-dependent quinone reductases regardless of their nitroreductase activity against CB1954, and a photospectrometric menadione reductase assay is available (see Methods below), so this approach provides a convenient means to assess functional expression.
# as §8
# Menadione reductase activity was determined by the method of Knox (5). […] Reduction of cytochrome C was recorded by measuring increase in absorbance at 550 nm. Specific activities were calculated using the total protein concentrations of cell lysates, which were determined using the Bradford reagent (Sigma-Aldrich). Aliquots of cell lysates were mixed with 250 μl of Bradford reagent and incubated in the dark at room temperature for 5 min before absorbance was measured at 595 nm. Absorbance values were compared to those obtained using known concentrations of bovine serum albumin.
# [11] = other: CB1954, cofactor NADPH, 37° C.
molecule,measurement,setting,value
NC(=O)C1=CN([C@@H]2O[C@H](COP(=O)(O)OP(=O)(O)OC[C@H]3O[C@@H](n4cnc5c(N)ncnc54)[C@H](O)[C@@H]3O)[C@@H](O)[C@H]2O)C=CC1 [NADH],Km,[1],5 µM
same,Km,[2],820 µM
same,Km,[3],6 µM
"HsoNTR, Haemophilus somnus 129PT nitroreductase (NfnB homolog, ZP_00122352.1), wild type, SEQ ID NO: 2 (Histophilus somni)",Km,[4]; other: 37° C.,22.03 µM
same,kcat,"[4]; other: CB1954, cofactor NADH",3.5 (NADH) S^−1
same,kcat,"[4]; other: CB1954, cofactor NADPH",13.13 (NADPH) S^−1
same,Km,[5],644 µM
"NmeNTR, Neisseria meningitidis MC58 nitroreductase (NfnB homolog, Q9K022), wild type, SEQ ID NO: 1 (Neisseria meningitidis MC58)",Km,[6]; other: 37° C.,2.47 µM
same,kcat,[6]; other: 37° C.,4.04 (NADH)
same,kcat/Km,[6]; other: 37° C.,1.636 (NADH)
same,kcat,[6]; [11],15.23 (NADPH)
same,kcat/Km,[6]; [11],6.166 (NADPH)
same,Km,[7],188 µM
"NmeNTR: NfnB homolog nitroreductase from Neisseria meningitidis MC58, accession Q9K022, SEQ ID NO: 1 (protein, listed as Neisseria meningitidis) MTVLSKEQVLSAFKNRKSCRHYDAARKISAEDFQFILELGRLSPSSVGSEPWQFIVVQNPEIRQAIKPFSWGMADALDTASHLVVFLAKKNARSDSPFMLESLKRRGVTEPDAVAKSLARYQAFQADDIKILDDSRALFDWCCRQTYIALANMMTGAAMAGIDSCPVEGFNYAEMERILSGQFGLFDAAEWGVSVAATFGYRVQEIATKARRPLEETVIWA",CB1954 nitroreductase activity (decrease in CB1954 concentration),[8],caused a decrease in CB1954 concentration; also recorded: rapidly consumed
same,Km,[9],< 6.3 µM
same,Km^CB1954 relative to the lowest previously reported (NfsA),[9],seven-fold lower
same,Kcat/K^CB1954,[9]; NADH,1.636 (NADH) s^−1μM^−1
same,Kcat/K^CB1954,[9]; NADPH,6.166 (NADPH) s^−1μM^−1
same,specific menadione reductase activity of lysates versus control,[10],significantly elevated above the control
"HsoNTR: NfnB homolog nitroreductase from Haemophilus somnus 129PT, accession ZP_00122352.1, SEQ ID NO: 2 (protein, listed as Haemophilus somnus) MTTISKEHVLDSFNRRASTRYYDPNKKISNEDFSYVLEFARLSPSSVGSEPWHFLVIQNPELRAKLKPVSWGMATQIDDASHLVVILAKKNARYDSEFLVQSMKRRGLSGEQIQATKEKYHLFQAEHMKTLENDRTLFDWASKQTYIALANMLTGAALIGIDSCPIEGFNYEKVNQILTDAGVLDSDEWGVSVMATFGYRAKEIKPKSRKSLDEIVTWVK",CB1954 nitroreductase activity (decrease in CB1954 concentration),[8],caused a decrease in CB1954 concentration; also recorded: rapidly consumed
same,Kcat/K^CB1954,[9]; NADH,0.159 (NADH) s^−1μM^−1
same,Kcat/K^CB1954,[9]; NADPH,0.596 (NADPH) s^−1μM^−1
same,specific menadione reductase activity of lysates versus control,[10],significantly elevated above the control
